Our source for the Kd values is patent US10899842 (dated 2021).

B1: ZW103 (antibody, V domains shown)
VH: QVQLQQSGAELVRPGVSVKISCKGSGYTFTDYAMHWVKQSHVKSLEWIGGISTYNGDASYNQKFKGKATMTVDKSSRTAYMELVRLTSEDSAIYYCAPSNYGYAMDYWGQGTSVTVSS
VL: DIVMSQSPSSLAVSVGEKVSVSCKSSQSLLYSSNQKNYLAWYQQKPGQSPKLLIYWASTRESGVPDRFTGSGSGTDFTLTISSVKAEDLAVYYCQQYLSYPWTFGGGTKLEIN
B2: ZW107 (antibody, V domains shown)
VH: QVQLQQSGAELVRPGTSVKISCKASGYAFTNYWLGWVKQRPGHGLEWIGDIYPGNGNNYYSEKFKDKATLTADKSSSTVYIRLSSLTSEDSAVYFCARHGSFRSAMDYWGQGTSVTVSS
VL: DIQMTQSPASPSASVGETVTITCRASENIYSYLAWYQQKQGKSPQLLVYNAKTLADGVPSRFSGSGSGTQFSLKINSLQPEDFGSYYCQHHYGTPPTFGGGTKLEIK
B3: ZW104 (antibody, V domains shown)
VH: QVQLQQSGAELARPGASVKMSCKASGYIFTTYAMHWVKQRPGQGLEWIGYINPTTVYTIYNQKFKDKATLTADKSSSTAYMQLSSLTSEDSAVYYCARLGGHWYFDVWGAGTTVTVSS
VL: not shown
B4: ZW106 (antibody, V domains shown)
VH: QVQLQQPESELVRPGGSVKLSCKASGYTFTSYWMDWVKQRHGQGLEWIGNIYPDSGGTNYAEKFKSKATLTVDTSSSTAYMHLSSLTSEDSAVYYCTREEALGGYYELTYWGQGTLVTVSA
VL: DIVLTQSPASLPVSLGQRATISCRASQSVSTSSYSYMHWYQQKPGQPPKLLIKYASNLESGVPARFSGSGSGTDFTLNIHPVEEEDTATYYCQHSWEIPYTFGGGTKLEIE

Sequence of human 4-1BB ECD (Q07011 24-186): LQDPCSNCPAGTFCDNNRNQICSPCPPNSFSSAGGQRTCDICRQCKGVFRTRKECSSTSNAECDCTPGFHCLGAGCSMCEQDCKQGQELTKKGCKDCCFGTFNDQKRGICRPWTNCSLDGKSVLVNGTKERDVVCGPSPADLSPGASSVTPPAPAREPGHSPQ

This assay has as its target human 4-1BB ECD (human, UniProt Q07011).
B1 came in with a Kd of 0.265 nM. This lies in the sub-nanomolar range.
On to B2, for which the Kd is less than 0.001 nM.
Regarding B3, binding was put at a Kd of 0.0474 nM.
The result for B4 reads 1.2 nM.

For orientation: Kd means the constant that tells how readily two partners part at equilibrium. A higher Kd goes with lower affinity.
